Blank lines part the entries; values can stand above or below the compound they belong to. Ends that are not written are not given here. Peptide text beside a SMILES is read from it.
How the values were obtained:
FAP [1] = target: T1, FAP (Homo sapiens, UniProt Q12884); test: FAP dipeptidyl peptidase assay; type: biochemical
T1 construct: the extracellular domain of FAP was cloned with a His-6 tag; made in house
T1 sequence (Q12884 26-760 limits assumed): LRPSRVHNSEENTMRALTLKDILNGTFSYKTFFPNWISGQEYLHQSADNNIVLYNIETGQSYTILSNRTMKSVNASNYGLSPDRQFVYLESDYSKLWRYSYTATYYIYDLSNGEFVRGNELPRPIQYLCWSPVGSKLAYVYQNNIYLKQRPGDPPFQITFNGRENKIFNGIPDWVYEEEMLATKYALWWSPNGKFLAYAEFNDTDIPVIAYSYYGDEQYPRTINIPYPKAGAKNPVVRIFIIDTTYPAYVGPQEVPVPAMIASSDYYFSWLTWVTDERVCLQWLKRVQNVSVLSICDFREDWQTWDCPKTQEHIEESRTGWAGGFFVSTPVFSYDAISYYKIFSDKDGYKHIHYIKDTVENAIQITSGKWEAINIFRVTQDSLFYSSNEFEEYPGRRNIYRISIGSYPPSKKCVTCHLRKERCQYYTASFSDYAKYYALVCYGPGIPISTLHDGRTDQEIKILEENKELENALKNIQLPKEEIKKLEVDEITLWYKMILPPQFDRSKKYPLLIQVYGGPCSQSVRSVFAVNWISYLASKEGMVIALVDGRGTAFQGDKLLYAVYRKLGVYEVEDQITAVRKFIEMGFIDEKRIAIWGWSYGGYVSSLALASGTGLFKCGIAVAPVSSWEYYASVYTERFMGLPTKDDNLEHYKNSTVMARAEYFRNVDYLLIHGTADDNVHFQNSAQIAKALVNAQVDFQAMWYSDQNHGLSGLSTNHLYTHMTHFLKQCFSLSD
Procedure: Quantitative assay for dipeptidyl peptidase activity were developed using Ala-Pro-AFC as the substrate as described by Park et al^18. Purified protein was mixed with 5-10-fold volumes of reaction buffer (100 mM NaCl, 100 mM Tris, pH 7.8), and added to an equal volume of 0.5 mM Ala-Pro-AFC in reaction buffer followed by incubation for 1 h at 37° C. Release of free AFC was measured in a DTX 880 Multimode Detector (Beckman, Fullerton, Calif.) using the 395 nm excitation/530 nm emission filter set.

all cell lines tested = test: Cytotoxicity, average IC50 over cell lines; type: cell-based
FAP [2] = target: T2, FAP (Homo sapiens, UniProt Q12884); conditions: previously demonstrated; cited from earlier work
T2 sequence (Q12884 1-760): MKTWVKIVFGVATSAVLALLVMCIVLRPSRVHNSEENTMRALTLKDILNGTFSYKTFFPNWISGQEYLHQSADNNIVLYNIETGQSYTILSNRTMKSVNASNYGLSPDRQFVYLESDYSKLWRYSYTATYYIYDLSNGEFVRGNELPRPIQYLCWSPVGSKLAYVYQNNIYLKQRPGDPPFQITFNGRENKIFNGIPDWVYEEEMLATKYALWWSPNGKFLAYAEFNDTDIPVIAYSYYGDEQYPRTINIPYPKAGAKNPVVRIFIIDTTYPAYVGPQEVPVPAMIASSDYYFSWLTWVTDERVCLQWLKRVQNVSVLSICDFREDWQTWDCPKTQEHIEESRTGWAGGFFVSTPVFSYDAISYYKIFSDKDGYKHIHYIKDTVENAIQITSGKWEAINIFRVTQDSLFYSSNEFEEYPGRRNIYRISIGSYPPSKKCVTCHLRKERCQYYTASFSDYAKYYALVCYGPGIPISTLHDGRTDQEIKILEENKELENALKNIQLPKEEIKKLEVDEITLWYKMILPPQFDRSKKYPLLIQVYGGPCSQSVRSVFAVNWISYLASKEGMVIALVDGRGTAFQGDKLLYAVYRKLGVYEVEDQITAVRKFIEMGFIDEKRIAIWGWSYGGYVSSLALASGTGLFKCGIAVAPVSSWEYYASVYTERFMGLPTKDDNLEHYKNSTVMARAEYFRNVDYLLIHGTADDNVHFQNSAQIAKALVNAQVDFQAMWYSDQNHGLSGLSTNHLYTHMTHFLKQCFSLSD

FAP [3] = target: T1, FAP; test: FAP gelatinase and collagenase assay with quenched (DQ) proteins; type: biochemical; conditions: 100 μgs/ml protein substrate
Procedure: Quenched gelatin and collagen conjugates were used to detect and confirm FAP's gelatinase and collagenase activity. DQ™ Gelatin from pig skin, DQ™ collagen, type IV from human placenta, DQ™ collagen, type I from bovine skin, all as fluorescent conjugates (Invitrogen, Rockville, Md.) were digested with FAP and digestion monitored on a fluorescence plate reader. Protein substrates were dissolved in reaction buffer (100 mM NaCl, 100 mM Tris, pH 7.8) to a final concentration of 100 μgs/ml. Trypsin digestion was used as a positive control. As a negative control the His tagged extra cellular domain of Prostate Specific Membrane Antigen (PSMA), which was similarly purified from S2 cells under the same conditions as FAP. Fluorescent quenched DQ™ Bovine Serum Albumin was used as a negative control for FAP protease activity.
Quenched forms of Gelatin and Collagen were used to confirm the gelatinase and collagenase activity of recombinant FAP. Quenching is achieved by labeling these proteins with the fluorophore FITC such that fluorescence signal from the intact protein is minimal due to is self-quenching by the fluorphore. Protein digestion releases FITC-labeled fragments that result in measurable increase in overall fluorescence signal from the reaction mixture. […] On a relative basis gelatin was digested ˜10-fold better by FAP than collagen I. MALDI analysis of digested fragments was performed to confirm hydrolysis.

[4] = tested on: control cells transfected with PSMA; test: Hydrolysis of quenched peptides by control cells transfected with PSMA; type: cell-based, human; conditions: 50 μM
Procedure: (§1) Subsequently, one of the MDA-MB-231 clones was used to evaluate FAP activity in vitro. In this assay cells were grown in serum containing media to 70% confluency followed by addition of fluorescence quenched peptides into the media at concentration of 50 μM. As a control cell lines transfected with the carboxypeptidase PSMA using the same vector system were used. Cells were incubated with three different FAP substrates, FIG. 18.

His-tagged FAP = target: T3, His-tagged FAP (Homo sapiens, UniProt Q12884); test: FAP hydrolysis of MCA/DNP fluorescence quenched peptide substrates; type: biochemical
T3 construct: the extracellular domain of FAP was cloned with a His-6 tag; made in house
T3 sequence (Q12884 26-760 limits assumed): T1 sequence (Q12884 26-760 limits assumed)
Procedure: Quenched substrates were prepared by using the MCA/DNP fluorophore/quencher pair. Synthesis of peptides was done using standard Fmoc solid phase coupling on NovaTag™ Dnp resin with a substitution level of 0.4 mmole/g (Novabiochem, San Diego, Calif.). N-terminal capping was done twice overnight with N-(7-methoxycoumarin-4-acetyloxy)succinimide (MCA-Osu) and 1-Hydroxybenzotriazole (HOBt) in N-Methyl 2 Pyrrolidone (NMP). Peptides were cleaved with 95% TFA, 2.5% TIS and 2.5% water. The purity and mass of each quenched peptide was confirmed by Reversed Phase-HPLC and MALDI-TOF analysis.
Quenched peptide substrates were weighed and dissolved in DMSO to obtain a final concentration of 50 mM and were stored at −20° C. until later use. Dilutions (e.g. 200 μM, 100 μM, 50 μM, 25 μM) were prepared in duplicates in the reaction buffer. His-tagged FAP was added to a final concentration of 5 nM. Release of free MCA was measured at excitation 355 nm and emission 460 nm in a 96-well fluorescence plate reader. Controls consisted of substrates in buffer±BSA.
On the basis of the 8.5 kDa gelatin cleavage map a series of fluorescence quenched substrates were prepared (colored sequences in Table 3) by using the Methoxycoumarin (MCA)/Dinitrophenyl (DNP) FRET combination (52). […]

[5] = tested on: FAP-transfected MDA-MB-231 cells; test: Hydrolysis of quenched peptides by FAP-transfected MDA-MB-231 cells; type: cell-based, human; conditions: 50 μM in serum containing media
From the text: Human breast cancer cell lines MCF-7 and MDA-MB-231 were selected for transfection because the cells were negative for FAP when grown under standard culture conditions (25). Details of transfection methodology are described in methods section of Specific Aim 2 below. Briefly, a 2.2 kb PCR fragment was purified by gel electrophoresis, digested with NheI and cloned into bicistronic pIRES vector (kindly provided by Dr. Ben Park, The Johns Hopkins University) previously digested with Nhe 1. Final construct was designated as pFAPIRES. Sequencing primers were designed for the entire length of the gene and were confirmed to be correct. The cells were transfected using Fugene 6 (Roche). Control transfections were done on the same lines with the empty IRES vector. Cells were characterized for production of FAP by Flow Cytometry (FIG. 17A-FIG. 17D).
as §1

FAP [6] = target: T1, FAP; test: Digestion of human collagen I and recombinant gelatins with FAP (SDS-PAGE, MALDI); type: biochemical; conditions: SDS PAGE and MALDI spectra
Procedure: Human collagen I (Becton Dickinson, Franklin Lakes, N.J.) and recombinant human gelatins of 100 KDa and 8.5 KDa (Fibrogen, San Francisco, Calif.) were dissolved in reaction buffer to a final concentration of 100-300 μg/ml. 0.5-1 μg of FAP was added per 100 μgs of protein substrate. Digestion was done for 4-6 hrs at 37° C. As a positive control trypsin digestion was used. As a negative control, protein solutions were incubated either with BSA or buffer only. Peptide fragments of a size <30 KDa were purified using 30 KDa Microcon spin filter (Millipore, Billerica, Mass.).
In an effort to elucidate the substrate specificity of FAP, we examined FAP digests of unlabeled human Collagen I using matrix assisted laser desorption ionization (MALDI) time of flight mass spectrometry. Digestion reactions were performed at a substrate to protease mass ratio of 200:1 using recombinant FAP or modified trypsin as a control. Two negative controls of Collagen alone and FAP alone were also included to identify any peptides due to autolysis/degradation of these proteins. […]
As Collagen I and Gelatin are currently the only known protein substrates for FAP, we developed an alternative method to identify FAP-selective cleavage sites within these proteins. […] The masses of fragments <3 KDa were purified for MALDI spectra and again analyzed using the FindPept tool. […]

Compound: C[C@H](N)C(=O)N1CCC[C@H]1C(=O)Nc1ccc2c(C(F)(F)F)cc(=O)oc2c1 [Ala-Pro-AFC] (HELM PEPTIDE1{A.P.[O=c1cc(C(F)(F)F)c2ccc(N[*:1])cc2o1]}$$$$V2.0)
cleavage of dipeptide substrate by purified FAP (FAP [1]): same kinetic parameters as previously described

Compound: CC(=O)O[C@H]1C(=O)[C@@]2(C)[C@H]([C@H](OC(=O)c3ccccc3)[C@]3(O)C[C@H](OC(=O)[C@H](O)[C@@H](NC(=O)c4ccccc4)c4ccccc4)C(C)=C1C3(C)C)[C@]1(OC(C)=O)CO[C@@H]1C[C@@H]2O [paclitaxel]
IC50 (all cell lines tested): 10 nM

Compound: C/C=C(/C)C(=O)O[C@H]1C(C)=C2[C@H]([C@@H]1OC(=O)CCCCCCC)[C@@](C)(OC(C)=O)C[C@H](OC(=O)CCC)[C@@]1(O)[C@H]2OC(=O)[C@@]1(C)O [thapsigargin]
IC50 (all cell lines tested): 0.1 nM

hydrolysis of FITC-quenched protein by FAP (FAP [3]): readily hydrolyzed
Compound: Collagen I: FITC-quenched DQ collagen I from bovine skin; in b297 Collagen I of the cited literature
cleavage by FAP (FAP [2]): could cleave

hydrolysis of FITC-quenched protein by FAP (FAP [3]): not all digested
Compound: Collagen IV: FITC-quenched DQ collagen IV from human placenta; in b297 Collagen IV of the cited literature
cleavage by FAP (FAP [2]): not

Km (His-tagged FAP; FAP hydrolysis of quenched substrate, Michaelis Menten): ~50 µM
hydrolysis by FAP (His-tagged FAP; substrate at 25 μM): rapidly hydrolyzed
Compound: VGPAGK (also: MCA/DNP quench labels) [tested as MCA/DNP fluorescence quenched substrate]
hydrolysis by control media [4]: relatively stable to hydrolysis
hydrolysis by FAP-positive cells [5]: appreciably hydrolyzed

digestion by FAP (FAP [6]): cleaved by FAP at certain specific sites
Compound: human Collagen I: unlabeled human collagen I (Becton Dickinson)
